Series [1] addresses NCp7 (nucleocapsid protein, Zn2.NCp7(1-55)) (HIV-1) (UniProt P35962). To be noted: Trp assay; virtually identical Kd to 20mer.
The target of series [2] is T1, NCp7 (nucleocapsid protein, Zn2.NCp7(1-55)) (HIV-1, UniProt P35962 SEQ:1-55).
T1 chain: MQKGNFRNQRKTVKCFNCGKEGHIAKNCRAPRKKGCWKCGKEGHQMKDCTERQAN
The series is described as follows: Trp37 quenching, 0.2 M NaCl; equivalent of three NCp7 bound with high affinity per RNA. To be noted: about 3 per 154mer); SL1-SL4 stem-loops.

Consider two molecules from patent US20060216692, “Switchable nucleic acids for diagnostics, screening and molecular electronics” (published 2006).

SL3 16mer: in series [1], the binding signal (fold of SL3 20mer) was 1.

B1: 154mer packaging domain (ssRNA)
RNA: GGAGCUCUCUCGACGCAGGACUCGGCUUGCUGAAGCGCGCACGGCAAGAGGCGAGGGGCGGCGACUGGUGAGUACGCCAAAAAUUUUGACUAGCGGAGGCUAGAAGGAGAGAGAUGGGUGCGAGAGCGUCAGUAUUAAGCGGGGGAGAAUUAGA
Consider B1, for which the binding result in series [2] is “binds”.
